According to PMC6783313 (Nature structural & molecular biology, 2019):

B1: ClpX(E183Q) from Listeria monocytogenes (natural protein)
chain: not shown
B2: ClpP2(S98A) from Listeria monocytogenes (natural protein)
chain: not shown

Legend:
[1] = target: the molecule itself; assay: cryo-EM structure
[2] = target: B1; assay: HDX-MS

| Binder | stoichiometry N [1] | binding result [2] |
| --- | --- | --- |
| B1 | 6 |  |
| B2 | 7 | binds |
